The record followed here is the RNAGym collection of RNA variant scans (doi:10.7554/elife.90254).

Sequences and labels used below:
B1: OR4K15 (parent)
chain: GUUAACGGUCAUAGGCCAUGGAAACUAGGAGCACCAUUUCGCUGCCAGUGAAGAAAUGAACAAAGAAAAUCUGGGCCAGGCAGGCAUCAAAAGAAAUAGUCUUGCGCUCAACCAGAAAGUCUGUAAUCAUUUUAAGGGUA

This data set covers variants of B1. Description: self-cleavage, relative activity (ratio to wild type); higher = more cleavage; in vitro, sequencing; the parent is a self-cleaving ribozyme.
As for GUUAACGGUCAUAGGCCAUGGAAACUAGGAGCACCAUUCCGCUGCCAGUGAAGAAAUGAACAAAGAAAAUCUGGGCCAGGCAGGCAUCAAAAGAAAUAGUCUUGCGCUCAACCAGAAAGCCUGUAAUCAUUUUAAGGGUA [U39C U120C], the self-cleavage is 0.95.
To GUUAACGGUCAUAGGCCAUGGAAACUAGGAGCACCAUUUAGCUGCCAGUGAAGAAAUGAACAAAGAAAAUCUGGGCCAGGCAGGCAUCAAAAGAAAUAGUCCUGCGCUCAACCAGAAAGUCUGUAAUCAUUUUAAGGGUA [C40A U102C] belongs 1.98; to GUUAACGGUCAUAGGCCAUGGAAACUAGGAGCACCAUUGCGCUGCCAGUGAAGAAAUGAACAAAGAAAAUCUGGGCCAGGCAGGCAUCAAAAGAGAUAGUCUUGCGCUCAACCAGAAAGUCUGUAAUCAUUUUAAGGGUA [U39G A95G], 1.81; to GUUAACGGUCAUAGGCCAUGGAAACUAGGAGCACCAUUUAGCUGCCAGUGAAGAAAUGAACAAAGAAAAUCUGGGCCAGGCAGGCAUCAAAAGAAACAGUCUUGCGCUCAACCAGAAAGUCUGUAAUCAUUUUAAGGGUA [C40A U97C], 1.43.
To GUUAACGGUCAUAGGCCAUGGAAACUAGGAGCACCAUUCCGCUGCCAGUGAAGAAAUGAACAAAGAAAAUCUGGGCCAGGCAGGCAUCAAAAGAAAUAGUCCUGCGCUCAACCAGAAAGUCUGUAAUCAUUUUAAGGGUA [U39C U102C] belongs 2.19; to GUUAACGGUCAUAGGCCAUGGAAACUAGGAGCACCAUUCCGCUGCCAGUGAAGAAAUGAACAAAGAAAAUCUGGGCCAGGCAGGCAUCAAAAGAAAUAGUCUUGCGCUCAACCAGAAAGUCUGUAAUCAUUUCAAGGGUA [U39C U133C], 2.27.
To GUUAACGGUCAUAGGCCAUGGAAACUAGGAGCACCAUUCCGCUGCCAGUGAAGAAAUGAACAAAGAAAAUCUGGGCCAGGCAGGCAUCAAAAGAAAUAGUCUUGCGCUCAACCAGAAAGUCUGUAAACAUUUUAAGGGUA [U39C U127A] belongs 2.26; to GUUAACGGUCAUAGGCCAUGGAAACUAGGAGCACCAUUCCGCUGCCAGUGAAGAAAUGAACAAAGAAAAUCUGGGCCAGGCAGGCAUCAAAAGAAACAGUCUUGCGCUCAACCAGAAAGUCUGUAAUCAUUUUAAGGGUA [U39C U97C], 1.29.
Regarding GUUAACGGUCAUAGGCCAUGGAAACUAGGAGCACCAUUCCGCUGCCAGCGAAGAAAUGAACAAAGAAAAUCUGGGCCAGGCAGGCAUCAAAAGAAAUAGUCUUGCGCUCAACCAGAAAGUCUGUAAUCAUUUUAAGGGUA [U39C U49C], the self-cleavage is 0.91.
In the case of GUUAACGGUCAUAGGCCAUGGAAACUAGGAGCACCAUUUAGCUGCCAGUGAAGAAAUGAACAAAGAAAAUCUGGGCCAGGCAGGCAUCAAAAGAAAUAGUCUUGCGCUCAACCGGAAAGUCUGUAAUCAUUUUAAGGGUA [C40A A114G], the self-cleavage came out at 0.11.
The value for GUUAACGGUCAUAGGCCAUGGAAACUAGGAGCACCAUUCCGCUGCCAGUGAAGAAAUGAACAAAGAAAAUCUGGGCCAGGCAGGCAUCAAAAGAAAUAAUCUUGCGCUCAACCAGAAAGUCUGUAAUCAUUUUAAGGGUA [U39C G99A] was 0.3.
The value for GUUAACGGUCAUAGGCCAUGGAAACUAGGAGCACCAUUGCGCUGCCAGUGAAGAAAUGAACAAAGAAAAUCUGGGCCAGGCAGGCAUCAAAAGAAAUAGUCUUGCGCUCAACCAGAAAGUCUGUAGUCAUUUUAAGGGUA [U39G A126G] was 1.03.
The value for GUUAACGGUCAUAGGCCAUGGAAACUAGGAGCACCAUUUGGCUGCCAGUGAAGAAAUGAACAAAGAAAAUCUGGGCCAGGCAGGCAUCAAAAGAAAUAGUCUUGCGCUCAACCAGAAAGUCUGUAAUCAUUUUAAGGGUA [C40G] was 1.62.
Consider GUUAACGGUCAUAGGCCAUGGAAACUAGGAGCACCAUUUAGCUGCCAGUGAAGAAAUGAACAAAGAAAAUCUGGGCCAGGCAGGCAUCAAAAGAAAUAGUCUUGCGCUCAACCAGAAAGUCUGUAAUCAUUUUAAGGGUA [C40A], for which the self-cleavage is 1.83.
In the case of GUUAACGGUCAUAGGCCAUGGAAACUAGGAGCACCAUUUAGCUGCCAGUGAAGAAAUGAACAAAGAAAAUCUGGGCCAGGCAGGCAUCAAAAGAGAUAGUCUUGCGCUCAACCAGAAAGUCUGUAAUCAUUUUAAGGGUA [C40A A95G], the self-cleavage was 2.53.
Turning to GUUAACGGUCAUAGGCCAUGGAAACUAGGAGCACCAUUCCGCUGCCAGUGAAGAAAUGAACAAAGAAAAUCUGGGCCAGGCAGGCAUCAAAAGAAAUAGUCUUGCGCUCAACCAGAAAGUCUGUAAUCAUUUUAAGGGCA [U39C U139C], the self-cleavage was determined as 1.9.
To GUUAACGGUCAUAGGCCAUGGAAACUAGGAGCACCAUUUAGCUGCCAGUGAAGAAAUGAACAAGGAAAAUCUGGGCCAGGCAGGCAUCAAAAGAAAUAGUCUUGCGCUCAACCAGAAAGUCUGUAAUCAUUUUAAGGGUA [C40A A64G] belongs 2.37; to GUUAACGGUCAUAGGCCAUGGAAACUAGGAGCACCAUUCCGCUGCCAGUGAAGAAAUGAACAAAGAAAAUCUGGGCCAGGCAGGCAUCAAAAGAAAUAGUCUUGCUCUCAACCAGAAAGUCUGUAAUCAUUUUAAGGGUA [U39C G106U], 0.02.
To GUUAACGGUCAUAGGCCAUGGAAACUAGGAGCACCAUUUAGCUGCCAGUGAAGAAAUGUACAAAGAAAAUCUGGGCCAGGCAGGCAUCAAAAGAAAUAGUCUUGCGCUCAACCAGAAAGUCUGUAAUCAUUUUAAGGGUA [C40A A59U] belongs 2.
To GUUAACGGUCAUAGGCCAUGGAAACUAGGAGCACCAUUCCGCUGCCAGUGAAGAAAUGAACAAAGAAAAUCUGGGCCAGGCAGGCAUCAAAAGAAAUAGUCUCGCGCUCAACCAGAAAGUCUGUAAUCAUUUUAAGGGUA [U39C U103C] belongs 0.93.
GUUAACGGUCAUAGGCCAUGGAAACUAGGAGCACCAUUGCGCUGCCAGUGAAGAAAUGAACAAAGAAAAUCUGGGCCAGGCAGGCAUCAGAAGAAAUAGUCUUGCGCUCAACCAGAAAGUCUGUAAUCAUUUUAAGGGUA [U39G A90G]: the self-cleavage worked out at 1.08.
The value for GUUAACGGUCAUAGGCCAUGGAAACUAGGAGCACCAUUUAGCUGCCAGUGAAGAAAUGAACAAAGAAAAUCUGGGCCAGGCAGGCAUCAAAAGAAAUAGUCUUGCGCUCAACCAGAAAGUCUGUAAUCAUUUUAGGGGUA [C40A A135G] was 1.29; that for GUUAACGGUCAUAGGCCAUGGAAACUAGGAGCACCAUUGCGCUGCCAGUGAAGAAAUGAACAAAGAAAAUCUGGGCCAGGCAGGCAUCAAAAGAAAUAGUCCUGCGCUCAACCAGAAAGUCUGUAAUCAUUUUAAGGGUA [U39G U102C] was 2.67.
Turning to GUUAACGGUCAUAGGCCAUGGAAACUAGGAGCACCAUUUAGCUGCCAGUGAAGAAAUGAACAAAGAAAAUCUGGGCCAGGCAGGCAUCAAAAGGAAUAGUCUUGCGCUCAACCAGAAAGUCUGUAAUCAUUUUAAGGGUA [C40A A94G], the self-cleavage came to 2.28.
The value for GUUAACGGUCAUAGGCCAUGGAAACUAGGAGCACCAUUGCGCUGCCAGUGAAGAAAUGAACGAAGAAAAUCUGGGCCAGGCAGGCAUCAAAAGAAAUAGUCUUGCGCUCAACCAGAAAGUCUGUAAUCAUUUUAAGGGUA [U39G A62G] was 1.3; that for GUUAACGGUCAUAGGCCAUGGAAACUAGGAGCACCAUUUAGCUGCCAGUGAAGAAAUGAACAAAGAAGAUCUGGGCCAGGCAGGCAUCAAAAGAAAUAGUCUUGCGCUCAACCAGAAAGUCUGUAAUCAUUUUAAGGGUA [C40A A68G] was 1.61; that for GUUAACGGUCAUAGGCCAUGGAAACUAGGAGCACCAUUUAGCUGCCAGUGAAGAAAUGAGCAAAGAAAAUCUGGGCCAGGCAGGCAUCAAAAGAAAUAGUCUUGCGCUCAACCAGAAAGUCUGUAAUCAUUUUAAGGGUA [C40A A60G] was 1.56.
Regarding GUUAACGGUCAUAGGCCAUGGAAACUAGGAGCACCAUUCCGCUGCCAGUGAAGAAAUGAACAAAGAAAAUCUGGGCCAGGCAGGCAUCAAAAGAAAUAGUCUUGCGCUCAACCAGAAAGUCUAUAAUCAUUUUAAGGGUA [U39C G123A], the self-cleavage was found to be 2.04.
As for GUUAACGGUCAUAGGCCAUGGAAACUAGGAGCACCAUUUAGCUGCCAGUGAAGAAAUGAACAAAGAAAAUCUGGGCCAGGCAGGCAUCAAGAGAAAUAGUCUUGCGCUCAACCAGAAAGUCUGUAAUCAUUUUAAGGGUA [C40A A91G], the self-cleavage came to 1.76.
As to GUUAACGGUCAUAGGCCAUGGAAACUAGGAGCACCAUUGCGCUGCCAGUGAAGAAAUGAACAAAGAAAAUCUGGGCCAGGCAGGCAUCAAAAGAAAUAGUCUUGAGCUCAACCAGAAAGUCUGUAAUCAUUUUAAGGGUA [U39G C105A], the self-cleavage stood at 0.16.
On to GUUAACGGUCAUAGGCCAUGGAAACUAGGAGCACCAUUCCGCUGCCAGUGAAGAAAUGAACAAAGAAAAUCUGGGCCAGGCAGGCAUCAAAAGAAAUAGUCUUGCGCUCAACCAUAAAGUCUGUAAUCAUUUUAAGGGUA [U39C G115U], for which the self-cleavage was found to be 0.04.
The value for GUUAACGGUCAUAGGCCAUGGAAACUAGGAGCACCAUUGCGCUGCCAGUGAAGAAAUGAACAAAGAUAAUCUGGGCCAGGCAGGCAUCAAAAGAAAUAGUCUUGCGCUCAACCAGAAAGUCUGUAAUCAUUUUAAGGGUA [U39G A67U] was 1.13; that for GUUAACGGUCAUAGGCCAUGGAAACUAGGAGCACCAUUCCGCUGCCAGUGAAGAAAUGAACAAAGAAAAUCUGGGCCAGGCAGGCAACAAAAGAAAUAGUCUUGCGCUCAACCAGAAAGUCUGUAAUCAUUUUAAGGGUA [U39C U87A] was 1.92.
The value for GUUAACGGUCAUAGGCCAUGGAAACUAGGAGCACCAUUCCGCUGCCAGUGAAGAAAUGAACAAAGAAAACCUGGGCCAGGCAGGCAUCAAAAGAAAUAGUCUUGCGCUCAACCAGAAAGUCUGUAAUCAUUUUAAGGGUA [U39C U70C] was 0.95.
To GUUAACGGUCAUAGGCCAUGGAAACUAGGAGCACCAUUCCGCUGCCAGUGAAGAAAUGAACAAAGAAAAUCUGGGCCAGGCAGGCAUCAAAAGAAAUAGCCUUGCGCUCAACCAGAAAGUCUGUAAUCAUUUUAAGGGUA [U39C U100C] belongs 2.44.
On to GUUAACGGUCAUAGGCCAUGGAAACUAGGAGCACCAUUCCGCUGCCAGUGAAGAAAUGAACAAAGAAAAUCUGGGCCAGGCAGGCAUCAAAAGAAAUAGACUUGCGCUCAACCAGAAAGUCUGUAAUCAUUUUAAGGGUA [U39C U100A], for which the self-cleavage came to 0.56.
For GUUAACGGUCAUAGGCCAUGGAAACUAGGAGCACCAUUCCGCUGCCAGUGAAGAAAUGAACAAAGAAAAUCUGGGCCAGGCAGGCAUCAAAAGAAAUAGUCUUGCGCACAACCAGAAAGUCUGUAAUCAUUUUAAGGGUA [U39C U108A], the self-cleavage amounted to 0.03.
To GUUAACGGUCAUAGGCCAUGGAAACUAGGAGCACCAUUUAGCUGCCAGUGAAGAAAUGAACAAAGAAAAUCUGGGCCAGGCAGGCAUCAAAAGAAAUAGUCUUGCGCUCAACCAGAAAGUCCGUAAUCAUUUUAAGGGUA [C40A U122C] belongs 1.07; to GUUAACGGUCAUAGGCCAUGGAAACUAGGAGCACCAUUCCGCUGCCAGUGAAGAAAUAAACAAAGAAAAUCUGGGCCAGGCAGGCAUCAAAAGAAAUAGUCUUGCGCUCAACCAGAAAGUCUGUAAUCAUUUUAAGGGUA [U39C G58A], 0.67; to GUUAACGGUCAUAGGCCAUGGAAACUAGGAGCACCAUUCCGCUGCCAGUGAAGAAAUGAACAAAGAAAAUCUGGGCCAGGCAGGCAUCAAAAGAAAUAGUCUUGCGCUCAACCAGAAAGUCUGUAAUCACUUUAAGGGUA [U39C U130C], 1.12.
The value for GUUAACGGUCAUAGGCCAUGGAAACUAGGAGCACCAUUUAGCUGCCAGUGGAGAAAUGAACAAAGAAAAUCUGGGCCAGGCAGGCAUCAAAAGAAAUAGUCUUGCGCUCAACCAGAAAGUCUGUAAUCAUUUUAAGGGUA [C40A A51G] was 1.81.
